We go through six molecules from publication PMC7156385, “Proper chromosome alignment depends on BRCA2 phosphorylation by PLK1” (Nature Communications, 2020).

For assay [1], the target named is BRCA2_(190-284) phosphorylated by PLK1 (human) (UniProt P51587). Put plainly: ITC; PLK1 PBD (326-603) and BRCA2 peptides; 50 mM Tris-HCl pH 8.0, 150 mM NaCl, 5 mM β-ME, 293 K, VP-ITC, one-site binding model. For orientation: In ITC the heat of successive injections is recorded.
The target in assay [2] is purified 2xMBP-BRCA2_(1-250) T207A (human) (UniProt P51587).
Assay [3] concerns the target endogenous BUBR1 (human (endogenous in DLD1)) (UniProt O60566). Nature of the assay: co-IP; immunoprecipitation of endogenous BUBR1 with mouse anti-BUBR1 antibody from nocodazole-treated DLD1 BRCA2-/- stable clones expressing BRCA2 WT or variants; extraction buffer A, washes up to 500 mM NaCl; western blot for PP2A-C and PLK1. On the technique in general: In western blotting, separated proteins are transferred to a membrane and probed.

Assay [4] has as its target T1, PLK1 Polo-box domain (amino acid 326 to amino acid 603) (UniProt P53350 326-603).
T1 construct: PLK1, Polo-box domain, amino acids 326 to 603, amplified from Addgene pTK24; also called PLK1PBD; PLK1 PBD (326-603); source: E. coli Tuner pLacI pRare, purified (His-Trap, SUMO protease, Ni-NTA, Superdex)
Nature of the assay: ITC; PLK1 PBD (326-603) and BRCA2 peptides; 50 mM Tris-HCl pH 8.0, 150 mM NaCl, 5 mM β-ME, 293 K, VP-ITC, one-site binding model. The note with it: both partners purified.

For assay [5], the target named is T2, recombinant PLK1 (UniProt P53350 1-603).
T2 construct: Polo-like kinase 1 (PLK1), cDNA from Addgene pTK24 cloned into pFast-Bac HT; also called 6xHis-PLK1; PLK1-WT; source: Sf9, purified (Ni-NTA, Capto S) or bought: Abcam
Nature of the assay: pull-down; in vitro kinase reaction (0.2 µg PLK1 or PLK1-KD, 0.5 µg 2xMBP-BRCA2_(1-250), kinase buffer with 250 µM ATP or without ATP, 30 min at 30 °C) followed by amylose beads for 1 h at 4 °C, washes with 0.5% NP-40 and 0.1% Triton X-100, elution with 10 mM maltose; western blot. The note with it: both partners purified.

[ ]: non-standard residue; d: D form. pT = C[C@@H](OP(=O)(O)O)[C@H](N)C(=O)O; pS = N[C@@H](COP(=O)(O)O)C(=O)O

T1 sequence (P53350 326-603): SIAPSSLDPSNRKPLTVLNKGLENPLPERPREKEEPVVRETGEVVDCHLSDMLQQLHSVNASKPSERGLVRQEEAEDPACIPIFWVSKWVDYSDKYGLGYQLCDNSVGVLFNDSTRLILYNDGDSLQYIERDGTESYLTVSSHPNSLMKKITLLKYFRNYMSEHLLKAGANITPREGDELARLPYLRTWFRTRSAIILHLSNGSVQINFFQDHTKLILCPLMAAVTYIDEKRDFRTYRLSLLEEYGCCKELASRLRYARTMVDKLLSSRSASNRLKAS
T2 sequence (P53350 whole entry): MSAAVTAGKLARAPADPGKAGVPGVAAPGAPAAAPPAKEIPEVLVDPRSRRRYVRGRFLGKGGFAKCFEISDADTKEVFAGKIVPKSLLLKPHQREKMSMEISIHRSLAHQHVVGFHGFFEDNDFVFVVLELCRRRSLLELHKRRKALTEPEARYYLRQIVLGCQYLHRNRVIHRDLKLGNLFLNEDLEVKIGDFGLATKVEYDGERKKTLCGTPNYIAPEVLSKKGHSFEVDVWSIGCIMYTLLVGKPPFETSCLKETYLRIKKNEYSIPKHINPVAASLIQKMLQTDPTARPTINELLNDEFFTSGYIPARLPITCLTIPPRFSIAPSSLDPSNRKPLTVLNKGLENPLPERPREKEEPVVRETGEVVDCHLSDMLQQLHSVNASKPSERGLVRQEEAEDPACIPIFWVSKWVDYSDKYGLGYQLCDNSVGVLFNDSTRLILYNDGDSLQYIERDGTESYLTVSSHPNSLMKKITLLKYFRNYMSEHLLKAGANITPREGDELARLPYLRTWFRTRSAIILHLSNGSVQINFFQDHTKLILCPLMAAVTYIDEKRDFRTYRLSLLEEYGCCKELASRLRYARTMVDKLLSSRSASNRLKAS
Sequence of endogenous BUBR1 (human (endogenous in DLD1)) (O60566 whole entry): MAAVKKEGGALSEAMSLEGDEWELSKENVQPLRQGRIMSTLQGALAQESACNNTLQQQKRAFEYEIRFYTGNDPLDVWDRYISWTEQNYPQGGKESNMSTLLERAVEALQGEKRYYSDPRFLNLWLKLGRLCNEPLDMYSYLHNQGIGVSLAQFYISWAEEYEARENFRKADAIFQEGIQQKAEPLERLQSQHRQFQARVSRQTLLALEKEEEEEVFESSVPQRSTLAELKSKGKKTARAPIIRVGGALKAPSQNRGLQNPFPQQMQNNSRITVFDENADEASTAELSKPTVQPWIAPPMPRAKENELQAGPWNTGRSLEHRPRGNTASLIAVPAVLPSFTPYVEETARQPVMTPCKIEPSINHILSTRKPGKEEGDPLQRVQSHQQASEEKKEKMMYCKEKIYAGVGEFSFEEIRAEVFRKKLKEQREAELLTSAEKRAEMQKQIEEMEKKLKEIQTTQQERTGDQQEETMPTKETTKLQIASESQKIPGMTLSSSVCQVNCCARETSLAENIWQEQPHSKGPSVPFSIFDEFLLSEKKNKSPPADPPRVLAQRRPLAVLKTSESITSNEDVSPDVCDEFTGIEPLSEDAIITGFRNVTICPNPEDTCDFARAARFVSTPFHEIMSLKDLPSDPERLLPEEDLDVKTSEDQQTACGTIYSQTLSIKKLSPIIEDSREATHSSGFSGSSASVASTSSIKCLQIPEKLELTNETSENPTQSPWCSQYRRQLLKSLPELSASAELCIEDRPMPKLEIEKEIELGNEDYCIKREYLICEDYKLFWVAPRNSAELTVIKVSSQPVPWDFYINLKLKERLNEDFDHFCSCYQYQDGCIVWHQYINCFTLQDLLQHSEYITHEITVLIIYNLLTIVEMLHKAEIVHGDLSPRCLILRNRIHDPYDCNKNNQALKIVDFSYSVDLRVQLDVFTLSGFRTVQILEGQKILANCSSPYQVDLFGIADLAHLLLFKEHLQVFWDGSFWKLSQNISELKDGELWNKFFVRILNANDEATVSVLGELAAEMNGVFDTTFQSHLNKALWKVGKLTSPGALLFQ
Sequence of BRCA2_(190-284) phosphorylated by PLK1 (human) (P51587 190-284): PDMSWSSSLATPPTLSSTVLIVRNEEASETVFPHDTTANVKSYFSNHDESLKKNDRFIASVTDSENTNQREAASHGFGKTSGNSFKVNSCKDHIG

As to “PLK1 Polo-box domain (amino acid 326 to amino acid 603) (from UniProt P53350 326-603) (domain or fragment)”, the Kd (commonly a measure of binding affinity in units of concentration) in assay [1] came to 140 nM.
Turning to “recombinant PLK1 (from UniProt P53350 1-603) (enzyme)”, the fold decrease in in vitro kinase assay: phosphorylation of 2xMBP-BRCA2 (1-250) by recombinant PLK1 (32P), T207A against WT in assay [2] is 2 fold.
In assay [3], “PP2A (detected by its catalytic subunit, PP2AC) (from UniProt P67775 1-309) (cell line)” yielded a reduction of PP2A co-immunoprecipitated with BUBR1 in BRCA2-T207A cells against BRCA2 WT cells of 30%.

B1: BRCA2 peptide containing pS197 (peptide)
chain: Ac-DMSWSS[pS]LAT-NH2
SMILES: CSCC[C@H](NC(=O)[C@H](CC(=O)O)NC(C)=O)C(=O)N[C@@H](CO)C(=O)N[C@@H](Cc1c[nH]c2ccccc12)C(=O)N[C@@H](CO)C(=O)N[C@@H](CO)C(=O)N[C@@H](COP(=O)(O)O)C(=O)N[C@@H](CC(C)C)C(=O)N[C@@H](C)C(=O)N[C@H](C(N)=O)[C@@H](C)O
B1: binding in assay [4] was characterised by a dissociation constant (Kd) of 17 ± 2 µM.

B2: purified 2xMBP-BRCA2_(1-250) WT (domain or fragment, human, UniProt P51587 1-250, looked up)
chain: MPIGSKERPTFFEIFKTRCNKADLGPISLNWFEELSSEAPPYNSEPAEESEHKNNNYEPNLFKTPQRKPSYNQLASTPIIFKEQGLTLPLYQSPVKELDKFKLDLGRNVPNSRHKSLRTVKTKMDQADDVSCPLLNSCLSESPVVLQCTHVTPQRDKSVVCGSLFHTPKFVKGRQTPKHISESLGAEVDPDMSWSSSLATPPTLSSTVLIVRNEEASETVFPHDTTANVKSYFSNHDESLKKNDRFIASV
notes: BRCA2, human, amino acids 1 to 250; also called PLK1-phosphorylated BRCA2_(1-250); source: HEK293T, transfected, purified (amylose resin, Bio-Rex 70)
B2: in assay [5], the binding result is recorded as “binds”.

B3: BRCA2 17 aa peptide containing pT207 (194WSSSLATPPTLSS{pT}VLI210) (peptide)
peptide: Ac-WSSSLATPPTLSS[pT]VLI-NH2
SMILES: CC[C@H](C)[C@H](NC(=O)[C@H](CC(C)C)NC(=O)[C@@H](NC(=O)[C@@H](NC(=O)[C@H](CO)NC(=O)[C@H](CO)NC(=O)[C@H](CC(C)C)NC(=O)[C@@H](NC(=O)[C@@H]1CCCN1C(=O)[C@@H]1CCCN1C(=O)[C@@H](NC(=O)[C@H](C)NC(=O)[C@H](CC(C)C)NC(=O)[C@H](CO)NC(=O)[C@H](CO)NC(=O)[C@H](CO)NC(=O)[C@H](Cc1c[nH]c2ccccc12)NC(C)=O)[C@@H](C)O)[C@@H](C)O)[C@@H](C)OP(=O)(O)O)C(C)C)C(N)=O
notes: BRCA2, human, residues 194-210, T207 phosphorylated; Used for ITC and for the crystal; also called pT207 peptide; T207 phosphorylated peptide; source: synthetic peptide
Molecule B3 gave a Kd in assay [4] of 0.09 ± 0.01 µM.
